Results taken from US20210253737A1.

Assays:
[1] = biological target: carboxymethyl lysine conjugated to keyhole limpet hemocyanin (CML-KLH); assay: direct binding ELISA, CML-KLH coat 1 µg/mL, antibody at 0.21 µg/mL
[2] = biological target: carboxymethyl lysine conjugated to keyhole limpet hemocyanin (CML-KLH); assay: direct binding ELISA, CML-KLH coat 1 µg/mL, antibody at 0.07 µg/mL
[3] = biological target: carboxymethyl lysine conjugated to keyhole limpet hemocyanin (CML-KLH); assay: direct binding ELISA, CML-KLH coat 1 µg/mL, antibody at 1.85 µg/mL
[4] = biological target: carboxymethyl lysine conjugated to keyhole limpet hemocyanin (CML-KLH); assay: direct binding ELISA, CML-KLH coat 1 µg/mL, antibody at 5.56 µg/mL
[5] = biological target: carboxymethyl lysine conjugated to keyhole limpet hemocyanin (CML-KLH); assay: direct binding ELISA, CML-KLH coat 1 µg/mL, antibody at 0.62 µg/mL
[6] = biological target: carboxymethyl lysine conjugated to keyhole limpet hemocyanin (CML-KLH); assay: direct binding ELISA, CML-KLH coat 1 µg/mL, antibody at 50 µg/mL
[7] = biological target: carboxymethyl lysine conjugated to keyhole limpet hemocyanin (CML-KLH); assay: direct binding ELISA, CML-KLH coat 1 µg/mL, antibody at 16.67 µg/mL
[8] = biological target: carboxymethyl lysine conjugated to keyhole limpet hemocyanin (CML-KLH); assay: direct binding ELISA, CML-KLH coat 1 µg/mL, antibody at 0 µg/mL (buffer control well, background)

OD450 [1]: 0.075 OD450
OD450 [2]: 0.086 OD450
OD450 [3]: 0.092 OD450
OD450 [4]: 0.165 OD450
OD450 [5]: 0.083 OD450
OD450 [6]: 0.462 OD450
OD450 [7]: 0.312 OD450
OD450 [8]: 0.09 OD450
Substance: carboxymethyl lysine MAb (Clone 318003), R&D Systems, Inc., catalog no. MAB3247 (antibody)
